Measured values as given in patent US20240269176A1 (Hoffmann-La Roche, published 2024).
Where two headings read alike, the source gives them in different places. Values belong to the binder of their own block, whether it stands above or below them.

Tests used:
[1] = target: VH3VL1-CD8ATD-CD137CSD-CD3zSSD fusion; experiment: cell-based or functional assay
[2] = target: VH1VL1-CD8ATD-CD137CSD-CD3zSSD fusion; experiment: cell-based or functional assay
[3] = target: VL1VH3-CD8ATD-CD137CSD-CD3zSSD fusion; experiment: cell-based or functional assay
[4] = target: VH2VL1-CD8ATD-CD137CSD-CD3zSSD fusion; experiment: cell-based or functional assay
[5] = target: murinPG-Fab-CAR; experiment: cell-based or functional assay
[6] = target: T1, VH3VL1-CD8ATD-CD137CSD-CD3zSSD fusion; experiment: NFAT-luciferase reporter assay, anti-P329G CAR Jurkat cells with WSUDLCL2 (CD20+) target cells
T1 construct: Chimeric antigen receptor with humanized anti-P329G scFv (VH-linker-VL), expressed on Jurkat NFAT reporter T cells; expression construct carried a T2A-GFP reporter
Experimental: (§1) Binding of the CAR to an immobilized adapter molecule (e.g. a tumor antigen bound adapter molecule) leads to CAR crosslinking resulting in T cell activation and in the expression of luciferase. […] The 384 well plate was centrifuged for 1 min at 300 g and RT and incubated at 37° C. and 5% CO₂ in a humidity atmosphere. After 7 h incubation 20% of the final volume of ONE-Glo™ Luciferase Assay (E6120, Promega) was added, and plates were centrifuged for 1 min at 350×g. Afterwards, the relative luminescence units (RLU) per s/well were measured immediately using a Tecan microplate reader. Concentration-response curves were fitted and EC₅₀ values were calculated using GraphPadPrism version 7. As p value the New England Journal of Medicine style was used as listed in GraphPadPrism 7. Meaning *=P≤0,033; **=P≤0,002; ***=P≤0,001.

[7] = target: T2, VH1VL1-CD8ATD-CD137CSD-CD3zSSD fusion; experiment: as above
T2 construct: Chimeric antigen receptor on Jurkat NFAT reporter T cells; also called VH1VL1 P329G-CAR
Experimental: as §1

[8] = target: T3, VL1VH3-CD8ATD-CD137CSD-CD3zSSD fusion; experiment: as above
T3 construct: Chimeric antigen receptor with scFv in VL-linker-VH orientation on Jurkat NFAT reporter T cells; the entry may be incomplete
Experimental: as §1

[9] = target: T4, VH2VL1-CD8ATD-CD137CSD-CD3zSSD fusion; experiment: as above
T4 construct: Chimeric antigen receptor on Jurkat NFAT reporter T cells; also called VH2VL1 P329G-CAR
Experimental: as §1

[10] = target: T1, VH3VL1-CD8ATD-CD137CSD-CD3zSSD fusion; experiment: cell-based or functional assay; remark: listed apart in the source
[11] = target: T2, VH1VL1-CD8ATD-CD137CSD-CD3zSSD fusion; experiment: cell-based or functional assay; remark: listed apart in the source
[12] = target: T3, VL1VH3-CD8ATD-CD137CSD-CD3zSSD fusion; experiment: cell-based or functional assay; remark: listed apart in the source
[13] = target: T1, VH3VL1-CD8ATD-CD137CSD-CD3zSSD fusion; experiment: NFAT-luciferase reporter assay, anti-P329G CAR Jurkat cells with WSUDLCL2 (CD20+) target cells; remark: listed apart in the source
Experimental: as §1

[14] = target: T2, VH1VL1-CD8ATD-CD137CSD-CD3zSSD fusion; experiment: as above; remark: listed apart in the source
Experimental: as §1

[15] = target: T3, VL1VH3-CD8ATD-CD137CSD-CD3zSSD fusion; experiment: as above; remark: listed apart in the source
Experimental: as §1

[16] = target: T4, VH2VL1-CD8ATD-CD137CSD-CD3zSSD fusion; experiment: as above; remark: listed apart in the source
Experimental: as §1

[17] = target: T2, VH1VL1-CD8ATD-CD137CSD-CD3zSSD fusion; experiment: cell-based or functional assay; remark: listed apart in the source
[18] = target: T3, VL1VH3-CD8ATD-CD137CSD-CD3zSSD fusion; experiment: cell-based or functional assay; remark: listed apart in the source

T2 sequence (chain, as listed by the source): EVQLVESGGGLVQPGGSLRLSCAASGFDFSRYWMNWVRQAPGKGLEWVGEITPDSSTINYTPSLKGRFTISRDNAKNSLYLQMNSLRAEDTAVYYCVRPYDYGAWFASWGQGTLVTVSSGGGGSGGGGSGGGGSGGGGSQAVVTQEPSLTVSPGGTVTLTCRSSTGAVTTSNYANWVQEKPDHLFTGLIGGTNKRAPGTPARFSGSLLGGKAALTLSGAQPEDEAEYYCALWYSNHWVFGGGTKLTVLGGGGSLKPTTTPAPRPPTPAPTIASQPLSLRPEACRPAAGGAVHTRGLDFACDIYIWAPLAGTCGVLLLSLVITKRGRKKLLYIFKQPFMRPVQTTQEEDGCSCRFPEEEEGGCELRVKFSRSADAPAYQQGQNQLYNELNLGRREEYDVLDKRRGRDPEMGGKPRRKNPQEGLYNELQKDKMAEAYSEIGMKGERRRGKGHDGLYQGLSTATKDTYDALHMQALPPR
T3 sequence (chain, as listed by the source): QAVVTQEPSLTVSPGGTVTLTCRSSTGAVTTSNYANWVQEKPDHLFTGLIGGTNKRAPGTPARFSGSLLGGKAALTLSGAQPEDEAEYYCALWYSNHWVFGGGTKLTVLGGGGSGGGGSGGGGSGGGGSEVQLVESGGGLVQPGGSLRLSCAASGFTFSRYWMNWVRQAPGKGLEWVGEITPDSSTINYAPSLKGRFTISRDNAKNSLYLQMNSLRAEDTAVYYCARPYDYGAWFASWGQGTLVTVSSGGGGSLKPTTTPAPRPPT
T1 sequence (chain, as listed by the source): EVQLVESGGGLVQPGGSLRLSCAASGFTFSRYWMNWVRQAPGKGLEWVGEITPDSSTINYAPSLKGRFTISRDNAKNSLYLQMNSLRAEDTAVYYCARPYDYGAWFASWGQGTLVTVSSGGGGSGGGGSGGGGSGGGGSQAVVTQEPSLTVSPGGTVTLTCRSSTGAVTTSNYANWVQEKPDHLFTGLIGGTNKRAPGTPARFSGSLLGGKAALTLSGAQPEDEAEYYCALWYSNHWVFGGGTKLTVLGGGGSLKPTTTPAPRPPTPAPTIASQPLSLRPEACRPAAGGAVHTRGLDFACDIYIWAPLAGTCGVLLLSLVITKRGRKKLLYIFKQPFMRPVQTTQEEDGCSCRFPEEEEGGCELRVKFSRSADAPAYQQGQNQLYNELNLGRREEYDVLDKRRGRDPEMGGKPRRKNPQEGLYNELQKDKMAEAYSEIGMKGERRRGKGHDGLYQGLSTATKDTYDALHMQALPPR
T4 sequence (chain, as listed by the source): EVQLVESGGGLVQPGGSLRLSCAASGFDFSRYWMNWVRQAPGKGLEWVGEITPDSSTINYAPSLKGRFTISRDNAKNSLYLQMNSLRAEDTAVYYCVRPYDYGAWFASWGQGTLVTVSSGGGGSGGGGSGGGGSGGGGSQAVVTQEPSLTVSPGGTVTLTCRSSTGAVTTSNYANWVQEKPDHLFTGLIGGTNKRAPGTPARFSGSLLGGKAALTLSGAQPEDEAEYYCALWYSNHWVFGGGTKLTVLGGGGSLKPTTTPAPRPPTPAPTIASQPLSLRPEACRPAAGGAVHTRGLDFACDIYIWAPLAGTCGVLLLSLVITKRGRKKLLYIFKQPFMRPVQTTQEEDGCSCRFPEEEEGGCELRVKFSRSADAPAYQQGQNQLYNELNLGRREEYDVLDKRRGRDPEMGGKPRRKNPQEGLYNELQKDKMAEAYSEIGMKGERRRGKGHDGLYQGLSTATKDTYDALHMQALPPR

EC50 (read off the curve); NFAT-luciferase, anti-P329G CAR Jurkat reporter cells (panel title murinPG-Fab-CAR activation) with WSUDLCL2 CD20+ target cells [5]: ~20 pM
B2: anti-CD20 (GA101) heterodimeric IgG1 (antibody)
heavy 1: QVQLVQSGAEVKKPGSSVKVSCKASGYAFSYSWINWVRQAPGQGLEWMGRIFPGDGDTDYNGKFKGRVTITADKSTSTAYMELSSLRSEDTAVYYCARNVFDGYWLVYWGQGTLVTVSSASTKGPSVFPLAPSSKSTSGGTAALGCLVKDYFPEPVTVSWNSGALTSGVHTFPAVLQSSGLYSLSSVVTVPSSSLGTQTYICNVNHKPSNTKVDKKVEPKSCDKTHTCPPCPAPELLGGPSVFLFPPKPKDTLMISRTPEVTCVVVDVSHEDPEVKFNWYVDGVEVHNAKTKPREEQYNSTYRVVSVLTVLHQDWLNGKEYKCKVSNKALGAPIEKTISKAKGQPREPQVYTLPPCRDELTKNQVSLWCLVKGFYPSDIAVEWESNGQPENNYKTTPPVLDSDGSFFLYSKLTVDKSRWQQGNVFSCSVMHEALHNHYTQKSLSLSP
heavy 2: QVQLVQSGAEVKKPGSSVKVSCKASGYAFSYSWINWVRQAPGQGLEWMGRIFPGDGDTDYNGKFKGRVTITADKSTSTAYMELSSLRSEDTAVYYCARNVFDGYWLVYWGQGTLVTVSSASTKGPSVFPLAPSSKSTSGGTAALGCLVKDYFPEPVTVSWNSGALTSGVHTFPAVLQSSGLYSLSSVVTVPSSSLGTQTYICNVNHKPSNTKVDKKVEPKSCDKTHTCPPCPAPELLGGPSVFLFPPKPKDTLMISRTPEVTCVVVDVSHEDPEVKFNWYVDGVEVHNAKTKPREEQYNSTYRVVSVLTVLHQDWLNGKEYKCKVSNKALPAPIEKTISKAKGQPREPQVCTLPPSRDEL
light: DIVMTQTPLSLPVTPGEPASISCRSSKSLLHSNGITYLYWYLQKPGQSPQLLIYQMSNLVSGVPDRFSGSGSGTDFTLKISRVEAEDVGVYYCAQNLELPYTFGGGTKVEIKRTVAAPSVFIFPPSDEQLKSGTASVVCLLNNFYPREAKVQWKVDNALQSGNSQESVTEQDSKDSTYSLSSTLTLSKADYEKHKVYACEVTHQGLSSPVTKSFNRGEC
modifications: defucosylated

EC50 of NFAT-luciferase activation of anti-P329G CAR Jurkat cells, WSUDLCL2 target cells (5:1); curve flat at 60-150 RLU/s, fit without meaning; VH1 x VL1 [17]: ~0.0485 pM
EC50 of NFAT-luciferase activation of anti-P329G CAR Jurkat cells, WSUDLCL2 target cells (5:1); curve flat at 60-150 RLU/s, fit without meaning; VL1 x VH 3 [18]: ~0.000234 pM
B4: anti-CD20 (GA101) LALA IgG1 (antibody)
heavy: not shown
light: B2 light
binding result [13]: no binding (tested: just below 10^2 nM (67 nM per paragraph 404))
binding result [14]: no binding (tested: just below 10^2 nM (67 nM per paragraph 404))
binding result [15]: no binding (tested: just below 10^2 nM (67 nM per paragraph 404))
binding result [16]: no binding (tested: just below 10^2 nM (67 nM per paragraph 404))

The remaining lines, values behind:

B1: anti-CD20 (GA101) P329G LALA IgG1 (antibody)
heavy: not shown
light: B2 light
EC50 of NFAT-luciferase activation of anti-P329G CAR Jurkat cells, WSUDLCL2 target cells (5:1); VH3 x VL1 [1]: 7.57 pM
EC50 of NFAT-luciferase activation of anti-P329G CAR Jurkat cells, WSUDLCL2 target cells (5:1); VH1 x VL1 [2]: 8.1 pM
EC50 of NFAT-luciferase activation of anti-P329G CAR Jurkat cells, WSUDLCL2 target cells (5:1); VL1 x VH 3 [3]: ~6.58 pM
EC50 of NFAT-luciferase activation of anti-P329G CAR Jurkat cells, WSUDLCL2 target cells (5:1); table row VH2 x VL1 [4]: ~6.93 pM

B3: anti-CD20 (GA101) wild type IgG1 (antibody)
heavy: not shown
light: B2 light
notes: also called WT GA101
binding result [6]: no binding (tested: just below 10^2 nM (67 nM per paragraph 404))
binding result [7]: no binding (tested: just below 10^2 nM (67 nM per paragraph 404))
binding result [8]: no binding (tested: just below 10^2 nM (67 nM per paragraph 404))
binding result [9]: no binding (tested: just below 10^2 nM (67 nM per paragraph 404))
EC50 of NFAT-luciferase activation of anti-P329G CAR Jurkat cells, WSUDLCL2 target cells (5:1); curve flat at 50-150 RLU/s, fit without meaning; VH3 x VL1 [10]: ~85 pM
EC50 of NFAT-luciferase activation of anti-P329G CAR Jurkat cells, WSUDLCL2 target cells (5:1); curve flat at 50-150 RLU/s, fit without meaning; VH1 x VL1 [11]: ~2.19 pM
EC50 of NFAT-luciferase activation of anti-P329G CAR Jurkat cells, WSUDLCL2 target cells (5:1); curve flat at 50-150 RLU/s, fit without meaning; VL1 x VH 3 [12]: ~78.3 pM
